According to patent publication US20110118447A1:
Changes are numbered by the printed parent chain. Names and notes keep the numbering of the source.

B1: C5A (XPA23) VH Y107K (antibody, V domains shown)
VH: EVQLLESGGGLVQPGGSLRLSCAASGFTFSKYFMFWVRQAPGKGLEWVSVISPSGGMTRYADSVKGRFTISRDNSKNTLYLQMNSLRAEDTAVYYCARVGYGGNSDKWGQGTLVTVSS
VL: DIQMTQSPSSVSASVGDRLTIICRASQDINRWLAWYQQTPGNAPKLLIHSATSLQSGVPSRFSGSGSGTDFTLTINSLQPEDFATYYCQQADSFPLTFGGGTKVEIK
B2: C5A (XPA23) VH S52A (antibody, V domains shown)
VH: B1 VH with S52A, K107Y
VL: B1 VL
B3: C5A (XPA23) VH Y107R (antibody, V domains shown)
VH: B1 VH with K107R
VL: B1 VL
B4: C5A (XPA23) VH I51L (antibody, V domains shown)
VH: B1 VH with I51L, K107Y
VL: B1 VL
B5: C5A (XPA23) VH I51V (antibody, V domains shown)
VH: B1 VH with I51V, K107Y
VL: B1 VL
B6: C5A (XPA23) VH S52G (antibody, V domains shown)
VH: B1 VH with S52G, K107Y
VL: B1 VL
B7: C5A (XPA23) VH S52P (antibody, V domains shown)
VH: B1 VH with S52P, K107Y
VL: B1 VL
B8: C5A (XPA23) VH I51F (antibody, V domains shown)
VH: B1 VH with I51F, K107Y
VL: B1 VL
B9: C5A (XPA23) VH F35A (antibody, V domains shown)
VH: B1 VH with F35A, K107Y
VL: B1 VL
B10: C5A (XPA23) VH P53A (antibody, V domains shown)
VH: B1 VH with P53A, K107Y
VL: B1 VL
B11: C5A (XPA23) VH Y107T (antibody, V domains shown)
VH: B1 VH with K107T
VL: B1 VL
B12: C5A (XPA23) VH V50L (antibody, V domains shown)
VH: B1 VH with V50L, K107Y
VL: B1 VL
B13: C5A (XPA23) VH S52V (antibody, V domains shown)
VH: B1 VH with S52V, K107Y
VL: B1 VL
B14: C5A (XPA23) VH V50I (antibody, V domains shown)
VH: B1 VH with V50I, K107Y
VL: B1 VL
B15: C5A (XPA23) VH I51A (antibody, V domains shown)
VH: B1 VH with I51A, K107Y
VL: B1 VL
B16: C5A (XPA23) VH V50A (antibody, V domains shown)
VH: B1 VH with V50A, K107Y
VL: B1 VL
B17: C5A (XPA23) VH F35I (antibody, V domains shown)
VH: B1 VH with F35I, K107Y
VL: B1 VL
B18: C5A (XPA23) VH F35L (antibody, V domains shown)
VH: B1 VH with F35L, K107Y
VL: B1 VL
B19: C5A (XPA23) VH P53V (antibody, V domains shown)
VH: B1 VH with P53V, K107Y
VL: B1 VL
B20: C5A (XPA23) VH F35P (antibody, V domains shown)
VH: B1 VH with F35P, K107Y
VL: B1 VL
B21: C5A (XPA23) VH F35V (antibody, V domains shown)
VH: B1 VH with F35V, K107Y
VL: B1 VL
B22: C5A (XPA23) VH P53G (antibody, V domains shown)
VH: B1 VH with P53G, K107Y
VL: B1 VL
B23: C5A (XPA23) VH Y107S (antibody, V domains shown)
VH: B1 VH with K107S
VL: B1 VL
B24: C5A (XPA23) VH Y107Q (antibody, V domains shown)
VH: B1 VH with K107Q
VL: B1 VL
B25: C5A (XPA23) VH V50G (antibody, V domains shown)
VH: B1 VH with V50G, K107Y
VL: B1 VL
B26: C5A (XPA23) VH F35G (antibody, V domains shown)
VH: B1 VH with F35G, K107Y
VL: B1 VL
B27: C5A (XPA23) VH I51G (antibody, V domains shown)
VH: B1 VH with I51G, K107Y
VL: B1 VL

Columns and labels:
[1] = molecular target: binding partner of C5A (XPA23); assay: Biacore, K-off
[2] = molecular target: binding partner of C5A (XPA23); assay: Biacore
[3] = molecular target: binding partner (antigen) of C5A (XPA23); assay: Biacore, K-off, fold vs original

| Binder | fold difference in affinity vs original [1] | fold affinity vs original [2] | fold difference in affinity vs original [3] | fold difference in affinity vs original [2] |
| --- | --- | --- | --- | --- |
| B1 | 0.82 fold | 0.82 fold | – | – |
| B2 | – | – | 0.05 fold | 0.05 fold |
| B3 | 0.85 fold | 0.85 fold | – | – |
| B4 | – | – | 0.79 fold | 0.79 fold |
| B5 | – | – | 0.99 fold | 0.99 fold |
| B6 | – | – | 0.03 fold | 0.03 fold |
| B7 | – | – | 0.05 fold | 0.05 fold |
| B8 | – | 0.9 fold | 0.9 fold | – |
| B9 | – | – | 0.07 fold | 0.07 fold |
| B10 | – | – | 0.05 fold | 0.05 fold |
| B11 | 0.83 fold | – | – | 0.83 fold |
| B12 | – | – | 0.09 fold | 0.09 fold |
| B13 | – | – | 0.04 fold | 0.04 fold |
| B14 | – | – | 0.1 fold | 0.1 fold |
| B15 | – | – | 1.04 fold | 1.04 fold |
| B16 | – | – | 0.09 fold | 0.09 fold |
| B17 | – | – | 0.85 fold | 0.85 fold |
| B18 | – | – | 0.78 fold | 0.78 fold |
| B19 | – | – | 1.1 fold | 1.1 fold |
| B20 | – | – | 0.06 fold | 0.06 fold |
| B21 | – | – | 0.89 fold | 0.89 fold |
| B22 | – | – | 0.02 fold | 0.02 fold |
| B23 | 0.89 fold | 0.89 fold | – | – |
| B24 | 0.87 fold | 0.87 fold | – | – |
| B25 | – | – | 0.03 fold | 0.03 fold |
| B26 | – | – | 0.04 fold | 0.04 fold |
| B27 | – | – | 0.94 fold | 0.94 fold |
